Ends that are not written are not given here.
Columns and labels:
[1] = target: T1, Heat Shock Protein 90 (HSP90), endogenous, in human cell lines (human), P07900; assay: cell-based or functional assay
[2] = target: HSP90 endogenous to CHO cells (Hamster), P46633; assay: cell-based or functional assay
[3] = target: T1, Heat Shock Protein 90 (HSP90), …; assay: streptavidin affinity purification of biotinylated peptide from lysates of cancer cells (UMSCC1, H1975), immunoblot for HSP90

HSP90 endogenous to CHO cells (Hamster), P46633, sequence (P46633 whole entry): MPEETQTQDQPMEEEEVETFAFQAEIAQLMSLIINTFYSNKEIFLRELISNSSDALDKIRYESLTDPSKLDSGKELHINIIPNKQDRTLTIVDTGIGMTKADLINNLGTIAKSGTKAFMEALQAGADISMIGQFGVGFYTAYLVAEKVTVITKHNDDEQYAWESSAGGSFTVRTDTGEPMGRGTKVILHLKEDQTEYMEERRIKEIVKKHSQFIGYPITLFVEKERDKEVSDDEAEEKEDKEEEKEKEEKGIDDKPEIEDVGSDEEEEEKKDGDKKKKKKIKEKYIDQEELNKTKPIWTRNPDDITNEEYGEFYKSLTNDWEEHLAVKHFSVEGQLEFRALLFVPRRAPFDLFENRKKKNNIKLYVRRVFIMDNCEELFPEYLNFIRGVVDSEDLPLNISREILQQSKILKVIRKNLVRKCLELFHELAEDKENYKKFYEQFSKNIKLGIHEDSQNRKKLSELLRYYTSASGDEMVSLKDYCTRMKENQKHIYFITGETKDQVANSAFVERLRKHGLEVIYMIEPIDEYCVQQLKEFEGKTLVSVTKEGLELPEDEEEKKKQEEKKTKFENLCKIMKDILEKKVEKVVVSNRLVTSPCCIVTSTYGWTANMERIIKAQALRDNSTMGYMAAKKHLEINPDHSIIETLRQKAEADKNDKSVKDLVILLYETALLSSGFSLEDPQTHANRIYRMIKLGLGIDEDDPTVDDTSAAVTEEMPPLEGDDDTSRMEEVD

B1: Specific Peptide Biotin-[…]-SVDNPHVC (peptide)
peptide: YGRKKRRQRRRSVDNPHVC
modifications: not fully specified (N-terminus)
clonogenic survival, A549 cells (WT-EGFR) (surviving fraction) [1]: 0.57 | clonogenic survival, H1975 cells (T790M-EGFR) (surviving fraction) [1]: 0.4 | clonogenic survival, H3255 cells (L858R-EGFR) (surviving fraction) [1]: 0.71 | clonogenic survival, HeLa cells (WT-EGFR) (surviving fraction) [1]: 0.72 | clonogenic survival, Het1A normal epithelial cells (WT-EGFR) (surviving fraction) [1]: 1.02 | clonogenic survival, MRC5 normal fibroblasts (WT-EGFR) (surviving fraction) [1]: 1.01 | clonogenic survival, UMSCC1 cells (WT-EGFR) (surviving fraction) [1]: 0.76 | clonogenic survival, UMSCC10B cells (WT-EGFR) (surviving fraction) [1]: 0.63 | clonogenic survival, UMSCC74B cells (WT-EGFR) (surviving fraction) [1]: 0.74 | clonogenic survival, CHO cells (EGFR negative) (surviving fraction) [2]: 0.98 | fold increase in HSP90 protein binding [3]: 5 to 10 fold

B2: Non Specific Peptide Biotin-[…]-NHVPSDVC (peptide)
peptide: YGRKKRRQRRRNHVPSDVC
modifications: not fully specified (N-terminus)
clonogenic survival, A549 cells (WT-EGFR) (surviving fraction) [1]: 0.81 | clonogenic survival, H1975 cells (T790M-EGFR) (surviving fraction) [1]: 0.77 | clonogenic survival, H3255 cells (L858R-EGFR) (surviving fraction) [1]: 1 | clonogenic survival, HeLa cells (WT-EGFR) (surviving fraction) [1]: 0.92 | clonogenic survival, Het1A normal epithelial cells (WT-EGFR) (surviving fraction) [1]: 0.91 | clonogenic survival, MRC5 normal fibroblasts (WT-EGFR) (surviving fraction) [1]: 1.04 | clonogenic survival, UMSCC1 cells (WT-EGFR) (surviving fraction) [1]: 1.02 | clonogenic survival, UMSCC10B cells (WT-EGFR) (surviving fraction) [1]: 0.96 | clonogenic survival, UMSCC74B cells (WT-EGFR) (surviving fraction) [1]: 0.89 | clonogenic survival, CHO cells (EGFR negative) (surviving fraction) [2]: 1.12

Reference: US20150218277A1
